From patent US20210079056A1 (Bayer, published 2021)

T1: rat ANP receptor (NPR-A) (rat, UniProt P18910 29-1057)
T1 sequence (looked up): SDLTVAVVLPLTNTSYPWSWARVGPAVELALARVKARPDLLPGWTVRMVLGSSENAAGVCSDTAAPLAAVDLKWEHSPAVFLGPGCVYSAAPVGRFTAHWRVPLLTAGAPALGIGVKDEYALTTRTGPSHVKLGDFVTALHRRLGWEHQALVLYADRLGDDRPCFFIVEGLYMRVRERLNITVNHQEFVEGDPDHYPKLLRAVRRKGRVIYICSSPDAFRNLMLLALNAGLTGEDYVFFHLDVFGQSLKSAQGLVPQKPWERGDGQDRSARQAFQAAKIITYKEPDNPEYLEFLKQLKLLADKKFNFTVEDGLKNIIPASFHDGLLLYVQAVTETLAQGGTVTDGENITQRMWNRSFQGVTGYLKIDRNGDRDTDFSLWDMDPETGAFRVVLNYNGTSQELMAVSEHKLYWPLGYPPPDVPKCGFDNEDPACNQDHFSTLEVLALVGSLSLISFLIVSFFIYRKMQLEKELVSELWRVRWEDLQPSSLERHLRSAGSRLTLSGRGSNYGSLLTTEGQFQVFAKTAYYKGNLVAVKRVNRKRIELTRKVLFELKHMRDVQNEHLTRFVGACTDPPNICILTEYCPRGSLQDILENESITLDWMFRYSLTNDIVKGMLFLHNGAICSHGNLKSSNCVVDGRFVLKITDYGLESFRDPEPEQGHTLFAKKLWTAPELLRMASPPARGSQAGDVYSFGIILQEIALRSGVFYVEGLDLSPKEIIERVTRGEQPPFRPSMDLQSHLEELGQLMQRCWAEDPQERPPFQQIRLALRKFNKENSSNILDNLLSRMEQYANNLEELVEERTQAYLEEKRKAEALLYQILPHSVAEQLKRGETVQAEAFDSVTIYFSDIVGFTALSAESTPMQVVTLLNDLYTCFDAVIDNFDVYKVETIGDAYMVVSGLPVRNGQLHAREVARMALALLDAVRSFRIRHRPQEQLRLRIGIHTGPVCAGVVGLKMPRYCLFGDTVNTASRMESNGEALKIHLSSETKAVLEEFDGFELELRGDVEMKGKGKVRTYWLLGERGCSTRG

T2: human NPRA (human, UniProt P16066 33-1061)
T2 sequence (looked up): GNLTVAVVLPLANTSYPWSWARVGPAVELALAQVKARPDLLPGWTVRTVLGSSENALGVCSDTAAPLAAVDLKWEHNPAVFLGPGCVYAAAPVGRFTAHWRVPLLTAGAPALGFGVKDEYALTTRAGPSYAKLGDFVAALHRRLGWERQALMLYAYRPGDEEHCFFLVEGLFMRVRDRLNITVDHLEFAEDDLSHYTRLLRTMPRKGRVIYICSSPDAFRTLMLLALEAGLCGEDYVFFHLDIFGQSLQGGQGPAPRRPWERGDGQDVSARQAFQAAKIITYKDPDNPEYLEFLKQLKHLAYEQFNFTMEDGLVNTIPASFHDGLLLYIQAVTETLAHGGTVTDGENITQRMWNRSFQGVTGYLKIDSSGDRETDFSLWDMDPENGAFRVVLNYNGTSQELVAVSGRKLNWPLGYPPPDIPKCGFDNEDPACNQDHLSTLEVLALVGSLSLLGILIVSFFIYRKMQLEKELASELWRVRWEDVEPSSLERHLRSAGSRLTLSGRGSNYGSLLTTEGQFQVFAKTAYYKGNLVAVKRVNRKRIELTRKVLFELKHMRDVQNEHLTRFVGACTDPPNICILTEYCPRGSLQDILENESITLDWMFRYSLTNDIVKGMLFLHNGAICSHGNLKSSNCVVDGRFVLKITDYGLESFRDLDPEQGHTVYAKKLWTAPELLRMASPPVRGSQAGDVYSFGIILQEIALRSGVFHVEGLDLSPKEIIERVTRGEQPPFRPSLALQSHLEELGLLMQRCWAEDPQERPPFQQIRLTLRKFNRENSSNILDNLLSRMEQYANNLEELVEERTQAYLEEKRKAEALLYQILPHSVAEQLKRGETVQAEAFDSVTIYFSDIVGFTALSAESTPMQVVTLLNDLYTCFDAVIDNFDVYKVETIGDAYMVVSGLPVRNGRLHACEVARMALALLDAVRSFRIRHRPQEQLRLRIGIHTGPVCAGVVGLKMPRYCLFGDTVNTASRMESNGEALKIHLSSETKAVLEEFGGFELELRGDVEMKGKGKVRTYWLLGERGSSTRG

T3: rat CNP receptor (NPR-B) (rat, UniProt P16067 17-1047)
T3 sequence (looked up): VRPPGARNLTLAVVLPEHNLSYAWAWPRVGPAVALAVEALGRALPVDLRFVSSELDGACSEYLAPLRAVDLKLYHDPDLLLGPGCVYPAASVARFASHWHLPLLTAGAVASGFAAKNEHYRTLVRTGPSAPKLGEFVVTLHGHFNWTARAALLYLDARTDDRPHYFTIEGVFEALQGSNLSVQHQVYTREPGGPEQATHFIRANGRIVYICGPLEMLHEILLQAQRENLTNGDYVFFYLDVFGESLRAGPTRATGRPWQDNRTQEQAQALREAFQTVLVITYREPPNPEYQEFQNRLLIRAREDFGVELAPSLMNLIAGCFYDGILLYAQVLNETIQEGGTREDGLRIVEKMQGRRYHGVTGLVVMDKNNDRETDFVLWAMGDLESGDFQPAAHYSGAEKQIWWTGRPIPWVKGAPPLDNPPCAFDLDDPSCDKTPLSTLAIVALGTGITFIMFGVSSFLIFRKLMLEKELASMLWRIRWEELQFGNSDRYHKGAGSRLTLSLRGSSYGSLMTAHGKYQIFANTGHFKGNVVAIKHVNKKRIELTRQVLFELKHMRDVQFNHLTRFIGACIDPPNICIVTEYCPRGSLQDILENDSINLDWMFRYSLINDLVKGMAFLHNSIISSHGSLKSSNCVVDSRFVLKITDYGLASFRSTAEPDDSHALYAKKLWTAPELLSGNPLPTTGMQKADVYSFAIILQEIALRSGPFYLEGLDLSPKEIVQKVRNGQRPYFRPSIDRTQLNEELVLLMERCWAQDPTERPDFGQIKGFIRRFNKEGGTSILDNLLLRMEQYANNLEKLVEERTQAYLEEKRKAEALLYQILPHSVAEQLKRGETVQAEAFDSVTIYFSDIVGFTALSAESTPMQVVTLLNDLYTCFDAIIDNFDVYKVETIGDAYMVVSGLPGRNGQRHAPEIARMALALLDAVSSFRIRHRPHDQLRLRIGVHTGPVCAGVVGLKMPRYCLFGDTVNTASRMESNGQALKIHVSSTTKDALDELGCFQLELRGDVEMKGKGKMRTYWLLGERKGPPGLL

B1: TPP-11156 (antibody, human IgG1, lambda)
heavy: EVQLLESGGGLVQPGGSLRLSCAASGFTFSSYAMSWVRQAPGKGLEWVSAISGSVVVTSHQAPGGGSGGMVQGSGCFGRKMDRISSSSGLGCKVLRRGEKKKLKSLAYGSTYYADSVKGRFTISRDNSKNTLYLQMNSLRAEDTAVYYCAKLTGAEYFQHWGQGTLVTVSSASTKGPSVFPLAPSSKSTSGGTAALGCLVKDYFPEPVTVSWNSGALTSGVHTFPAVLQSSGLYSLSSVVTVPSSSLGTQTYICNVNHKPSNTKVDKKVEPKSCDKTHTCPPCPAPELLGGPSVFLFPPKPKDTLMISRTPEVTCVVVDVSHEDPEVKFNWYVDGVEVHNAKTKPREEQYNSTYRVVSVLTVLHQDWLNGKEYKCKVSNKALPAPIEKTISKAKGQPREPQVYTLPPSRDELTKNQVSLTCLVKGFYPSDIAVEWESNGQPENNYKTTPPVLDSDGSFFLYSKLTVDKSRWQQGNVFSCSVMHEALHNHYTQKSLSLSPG
light: QSVLTQPPSVSGAPGQRVTISCTGSSSNIGAGYDVHWYQQLPGTAPKLLIYGNSNRPSGVPDRFSGSKSGTSASLAITGLQAEDEADYYCQSYDSSLSGVVFGGGTKLTVLGQPKAAPSVTLFPPSSEELQANKATLVCLISDFYPGAVTVAWKADSSPVKAGVETTTPSKQSNNKYAASSYLSLTPEQWKSHRSYSCQVTHEGSTVEKTVAPTECS
B2: TPP-9902 (antibody)
heavy: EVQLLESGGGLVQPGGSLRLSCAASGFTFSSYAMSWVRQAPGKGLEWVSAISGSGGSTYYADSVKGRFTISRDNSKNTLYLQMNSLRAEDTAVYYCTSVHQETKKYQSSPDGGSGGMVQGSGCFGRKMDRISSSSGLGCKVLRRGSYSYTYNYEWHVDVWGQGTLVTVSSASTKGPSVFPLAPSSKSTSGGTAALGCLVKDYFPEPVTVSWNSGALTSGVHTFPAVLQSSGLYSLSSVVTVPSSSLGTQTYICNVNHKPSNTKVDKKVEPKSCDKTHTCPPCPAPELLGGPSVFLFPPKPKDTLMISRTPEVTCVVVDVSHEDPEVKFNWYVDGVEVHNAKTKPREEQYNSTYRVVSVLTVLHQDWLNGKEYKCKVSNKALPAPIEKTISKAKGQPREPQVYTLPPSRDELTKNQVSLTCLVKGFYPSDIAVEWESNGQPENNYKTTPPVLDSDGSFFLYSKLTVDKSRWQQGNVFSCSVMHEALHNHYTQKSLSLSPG
light: QSVLTQPPSVSGAPGQRVTISCTGSSSNIGAGYDVHWYQQLPGTAPKLLIYGNSNRPSGVPDRFSGSKSGTSASLAITGLQAEDEADYYCQSYDSSLSGVVFGGGTKLTVLGQPKAAPSVTLFPPSSEELQANKATLVCLISDFYPGAVTVAWKADSSPVKAGVETTTPSKQSNNKYAASSYLSLTPEQWKSHRSYSCQVTHEGSTVEKTVAPTECS
B3: TPP-10992 (antibody, human IgG4 S228P, lambda)
heavy: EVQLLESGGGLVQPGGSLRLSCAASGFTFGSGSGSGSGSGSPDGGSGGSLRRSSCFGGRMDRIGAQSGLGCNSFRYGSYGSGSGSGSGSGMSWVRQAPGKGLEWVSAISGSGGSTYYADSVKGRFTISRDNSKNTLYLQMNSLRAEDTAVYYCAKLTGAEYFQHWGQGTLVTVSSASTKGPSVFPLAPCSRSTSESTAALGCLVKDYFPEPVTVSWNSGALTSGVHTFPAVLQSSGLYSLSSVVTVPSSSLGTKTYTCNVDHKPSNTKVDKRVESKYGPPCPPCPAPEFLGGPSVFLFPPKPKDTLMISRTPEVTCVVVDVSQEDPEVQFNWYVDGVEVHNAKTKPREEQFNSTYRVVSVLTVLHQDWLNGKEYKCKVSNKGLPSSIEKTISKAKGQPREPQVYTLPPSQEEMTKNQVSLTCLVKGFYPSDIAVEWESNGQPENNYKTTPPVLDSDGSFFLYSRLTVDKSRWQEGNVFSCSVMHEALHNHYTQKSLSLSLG
light: QSVLTQPPSVSGAPGQRVTISCTGSSSNIGAGYDVHWYQQLPGTAPKLLIYGNSNRPSGVPDRFSGSKSGTSASLAITGLQAEDEADYYCQSYDSSLSGVVFGGGTKLTVLGQPKAAPSVTLFPPSSEELQANKATLVCLISDFYPGAVTVAWKADSSPVKAGVETTTPSKQSNNKYAASSYLSLTPEQWKSHRSYSCQVTHEGSTVEKTVAPTECS
B4: TPP-5661 (antibody)
heavy: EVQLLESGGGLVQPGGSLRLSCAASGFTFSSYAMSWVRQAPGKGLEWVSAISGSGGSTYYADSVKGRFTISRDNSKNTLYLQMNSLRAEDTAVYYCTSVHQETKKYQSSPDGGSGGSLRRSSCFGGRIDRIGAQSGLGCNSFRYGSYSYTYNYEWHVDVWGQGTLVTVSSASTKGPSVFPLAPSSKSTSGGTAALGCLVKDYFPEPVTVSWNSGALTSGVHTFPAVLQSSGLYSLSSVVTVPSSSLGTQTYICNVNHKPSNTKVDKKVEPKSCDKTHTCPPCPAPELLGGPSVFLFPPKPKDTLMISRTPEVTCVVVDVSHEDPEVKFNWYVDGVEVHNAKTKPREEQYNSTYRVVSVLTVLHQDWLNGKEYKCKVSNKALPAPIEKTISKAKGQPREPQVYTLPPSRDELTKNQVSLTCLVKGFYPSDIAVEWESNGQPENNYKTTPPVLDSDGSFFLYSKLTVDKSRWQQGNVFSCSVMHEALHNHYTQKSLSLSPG
light: QSVLTQPPSVSGAPGQRVTISCTGSSSNIGAGYDVHWYQQLPGTAPKLLIYGNSNRPSGVPDRFSGSKSGTSASLAITGLQAEDEADYYCQSYDSSLSGVVFGGGTKLTVLGQPKAAPSVTLFPPSSEELQANKATLVCLISDFYPGAVTVAWKADSSPVKAGVETTTPSKQSNNKYAASSYLSLTPEQWKSHRSYSCQVTHEGSTVEKTVAPTECS
B5: TPP-12377 (antibody)
heavy: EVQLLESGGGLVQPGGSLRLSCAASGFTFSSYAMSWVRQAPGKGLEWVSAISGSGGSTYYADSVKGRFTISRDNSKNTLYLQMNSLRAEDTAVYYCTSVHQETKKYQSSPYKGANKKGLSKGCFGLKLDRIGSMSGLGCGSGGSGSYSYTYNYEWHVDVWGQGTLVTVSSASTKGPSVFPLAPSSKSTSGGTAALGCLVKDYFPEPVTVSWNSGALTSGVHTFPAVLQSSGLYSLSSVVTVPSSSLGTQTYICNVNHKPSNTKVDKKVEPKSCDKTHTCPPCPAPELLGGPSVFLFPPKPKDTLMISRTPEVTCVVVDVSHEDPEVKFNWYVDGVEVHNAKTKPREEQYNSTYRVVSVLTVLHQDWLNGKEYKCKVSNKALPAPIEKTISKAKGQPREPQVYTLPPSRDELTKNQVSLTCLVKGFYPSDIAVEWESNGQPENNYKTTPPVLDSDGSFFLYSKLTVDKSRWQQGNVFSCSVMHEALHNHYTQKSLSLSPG
light: QSVLTQPPSVSGAPGQRVTISCTGSSSNIGAGYDVHWYQQLPGTAPKLLIYGNSNRPSGVPDRFSGSKSGTSASLAITGLQAEDEADYYCQSYDSSLSGVVFGGGTKLTVLGQPKAAPSVTLFPPSSEELQANKATLVCLISDFYPGAVTVAWKADSSPVKAGVETTTPSKQSNNKYAASSYLSLTPEQWKSHRSYSCQVTHEGSTVEKTVAPTECS
B6: TPP-9465 (antibody)
heavy: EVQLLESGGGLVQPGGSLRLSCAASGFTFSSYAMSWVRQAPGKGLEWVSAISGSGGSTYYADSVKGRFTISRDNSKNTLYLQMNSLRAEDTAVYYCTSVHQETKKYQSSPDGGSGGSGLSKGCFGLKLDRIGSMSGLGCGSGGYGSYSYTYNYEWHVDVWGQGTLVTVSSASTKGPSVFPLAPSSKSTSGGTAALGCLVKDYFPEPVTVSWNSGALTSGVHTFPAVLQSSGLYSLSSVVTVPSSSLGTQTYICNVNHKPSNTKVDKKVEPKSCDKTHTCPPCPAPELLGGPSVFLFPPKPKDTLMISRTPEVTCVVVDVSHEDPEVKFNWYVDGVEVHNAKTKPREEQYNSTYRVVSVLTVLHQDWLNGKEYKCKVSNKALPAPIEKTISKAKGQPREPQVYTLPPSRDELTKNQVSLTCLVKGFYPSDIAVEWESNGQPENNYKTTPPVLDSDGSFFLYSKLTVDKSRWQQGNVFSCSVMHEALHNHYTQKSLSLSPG
light: QSVLTQPPSVSGAPGQRVTISCTGSSSNIGAGYDVHWYQQLPGTAPKLLIYGNSNRPSGVPDRFSGSKSGTSASLAITGLQAEDEADYYCQSYDSSLSGVVFGGGTKLTVLGQPKAAPSVTLFPPSSEELQANKATLVCLISDFYPGAVTVAWKADSSPVKAGVETTTPSKQSNNKYAASSYLSLTPEQWKSHRSYSCQVTHEGSTVEKTVAPTECS
B7: TPP-12897 (antibody)
heavy: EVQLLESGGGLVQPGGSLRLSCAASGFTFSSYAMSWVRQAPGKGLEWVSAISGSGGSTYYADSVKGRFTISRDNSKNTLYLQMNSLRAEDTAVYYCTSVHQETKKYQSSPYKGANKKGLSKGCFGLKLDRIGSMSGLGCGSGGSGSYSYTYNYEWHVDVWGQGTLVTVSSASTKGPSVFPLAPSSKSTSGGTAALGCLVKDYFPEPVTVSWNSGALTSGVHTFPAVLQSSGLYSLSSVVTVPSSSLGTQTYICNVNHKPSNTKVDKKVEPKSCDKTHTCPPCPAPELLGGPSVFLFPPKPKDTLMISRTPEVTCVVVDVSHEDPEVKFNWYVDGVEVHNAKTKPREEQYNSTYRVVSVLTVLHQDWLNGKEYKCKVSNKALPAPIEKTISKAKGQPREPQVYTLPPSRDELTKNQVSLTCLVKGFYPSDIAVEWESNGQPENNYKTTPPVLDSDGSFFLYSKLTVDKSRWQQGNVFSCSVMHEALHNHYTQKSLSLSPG
light: QSVLTQPPSVSGAPGQRVTISCTGSSSNIGAGYDVHWYQQLPGTAPKLLIYGNSNRPSGVPDRFSGSKSGTSASLAITGLQAEDEADYYCQSYDSSLDGVVFGGGTKLTVLGQPKAAPSVTLFPPSSEELQANKATLVCLISDFYPGAVTVAWKADSSPVKAGVETTTPSKQSNNKYAASSYLSLTPEQWKSHRSYSCQVTHEGSTVEKTVAPTECS

How the values were obtained:
Assay in all cases: cell-based or functional assay
rat ANP receptor (NPR-A) = molecular target: T1, rat ANP receptor (NPR-A)
human NPRA = molecular target: T2, human NPRA
rat CNP receptor (NPR-B) = molecular target: T3, rat CNP receptor (NPR-B)

| Binder | EC50, fluorescence of cGMP reporter cells (rat ANP receptor (NPR-A)) [nM] | EC50, luminescence of cGMP reporter cells (rat CNP receptor (NPR-B)) [nM] | other results |
| --- | --- | --- | --- |
| B1 | 1200 |  |  |
| B2 | 2300 |  |  |
| B3 | 180 |  |  |
| B4 | 17 |  | log EC50 ics, cGMP assay, stable hNPRA-CHO k1 cells (human NPRA): -8.8 log M; log EC50 pcs, cGMP assay, stable hNPRA-CHO k1 cells, average (human NPRA): -9.2 log M; log EC50 pcs, cGMP assay, transient hNPRA-HEK293 cells, average (human NPRA): -9 log M |
| B5 |  | 4.1 |  |
| B6 |  | 5.2 |  |
| B7 |  | 10 |  |
